# In the nanobody polyreactivity screen of Harvey et al. (2022):
# Test: yeast display, Sf9 membrane polyspecificity reagent, FACS + sequencing; frameworks hold sequencing errors
# Method in brief: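 Nanobodies from a synthetic yeast display library (Saccharomyces cerevisiae BJ5465), induced 36–48 hours with galactose, were stained 1 hour at 4 °C with 10% biotinylated, detergent-solubilized Sf9 membrane reagent, enriched on streptavidin microbeads, then FACS-sorted. Anti-HA (expression) and streptavidin (reagent binding) fluorescence set low and high (top ~1%) gates. Polyreactivity labels come from the gate of origin. Genes were colony-PCR amplified, MiSeq 2 × 250 sequenced and filtered by CDR length.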
row,Sequence,polyreactivity (PSR sort gate)
1,QVQLVESGGGLVQAGGSLRLSCAASGFTFNSYAMGWYRQAPGKEREFVAAISRSGSNTNYADSVKGRFTISRDNAKNTVYLEMNSLKPEDTAVYYCAARVSSVTRSGFGYWGEGTQVTVSS,high polyreactivity
2,QVQLVESGGGLVQAGGSLRLSCAASGFTFNSYAMGWYRQAPGKKGSWLAITSDGSTYYADSVKGRFTISRDNAKNTVYLQMNSLKPEDSAVYFCAVRTSWYGAASRYYYWGQGTKVTVSS,high polyreactivity
3,QVQLVESGGGLVQAGGSLRLSCAASGFTFNYYAMGLYRQAPGKERELVARITSGGSTYYADSVKGRFTISRDNAKNTVYLQMNSLKPEDTAVYYCNVDVSVEVAYWGQGTQVTVSS,low polyreactivity
4,QVQLVESGGGLVQAGGSLRLSCAASGFTFNYYAMGWYRQAPGKERELVAGITRSGVSTNYADSVKGRFTISRDNAKNTVYLQMNSLKPEDTAVYYCAREEGRRYRGWPYVYAPQHDYWGQGTQVTVSS,high polyreactivity
5,QVQLVESGGGLVQAGGSLRLSCAASGFTFNYYVMGWYRQAPGKEREMVSAISRGGGSTYYADSVKGRFTISRDNAKNTVYLQMNSLKPEDTEVYYCAARPYSYLFFYWGQGTQVTVSS,high polyreactivity
6,QVQLVESGGGLVQAGGSLRLSCAASGFTFPAYAMGWYRQAPGKERELVAAISSRGGSTYYADSVKGRFTISRDNAKNTVYLQMNSLKPEDTAVYYCASRRANGYYYWGQGTQVTVSS,high polyreactivity
7,QVQLVESGGGLVQAGGSLRLSCAASGFTFPGNAMGWYRQAPGKEREFVAAITRSSGSTSYADSVKGRFTISRDNAKNTVYLQMTSLKPEDTAVYRDYWGQGTQVTVSS,low polyreactivity
8,QVQLVESGGGLVQAGGSLRLSCAASGFTFPGYAMGGYRQAPGKERELVAAISSTDRTTYADSVKGRFTISRDNAKNTVYLQMNSLKPEDTAVYYCNTATRRRPRGYWGQGTQVTVSS,high polyreactivity
9,QVQLVESGGGLVQAGGSLRLSCAASGFTFPGYAMGWYRQAPGKERELVAAISYSSGSTYYADSVKGRFTISRDNAKNTVYLQMNSLKPEDTAVYYCNRVYRFRGITELDYWGQGTQVTVSS,high polyreactivity
10,QVQLVESGGGLVQAGGSLRLSCAASGFTFPNYAMGWYRQAPGKERELVAAISRRGGRTYYADSVKGRFTISRDNAKNTVYLQMNSLKPEDTAVYYCATEYRGDGPKYDYWGQGTQVTVSS,high polyreactivity
11,QVQLVESGGGLVQAGGSLRLSCAASGFTFPNYAMGWYRQAPGKERELVAAITSGGGRTNYADSVKGRFTISRDNAKNTVYLQMNSLKPEDTAVYYCAKTRVRGSEFGYWGQGTQVTVSS,low polyreactivity
12,QVQLVESGGGLVQAGGSLRLSCAASGFTFPPYAMGWYRQAPGKERELVAAISSAGSTKYADSVKGRFTISRDNAKNTVYLQMNSLKPEDSAVYYCDKKGRTARGRYDYWGQGTQVTVSS,low polyreactivity
13,QVQLVESGGGLVQAGGSLRLSCAASGFTFPRNAMGWYRQAPGKERELVAAISRGGGGTYYADSVKGRFTISRDNAKNTVYLQMNSLKPEDTAVYYCNARSVVREFNYWGQGTQVTVSS,high polyreactivity
14,QVQLVESGGGLVQAGGSLRLSCAASGFTFPRYAMGWYRQAPGKERELVAAITSGDRTYYADSVKGRFTISRDNAKNTVYLQMNSLKPEDTAVYYCAKSSPRKSSQKHSFYEYNYWGQGTQVTVSS,high polyreactivity
15,QVQLVESGGGLVQAGGSLRLSCAASGFTFPSYAMGWYRQAPGKERELGAVISRRGGSTYYADSVKGRFTISRDNAKNTVYLQLNSLKPEDTAVYYCARPRQPGSLYGYWGQGTQVTVSS,high polyreactivity
16,QVQLVESGGGLVQAGGSLRLSCAASGFTFPTYAMGWYRQAPGKERELVAALSTSGARTYYADSVKGRFTISRDNAKNTVYLQMNSLKPEDTAVYYCAVGSIYTICFRKGYRFDYWGQGTQVTVSS,high polyreactivity
17,QVQLVESGGGLVQAGGSLRLSCAASGFTFPVYALGWYRQAPGKEREFVAAITKSGGGTYYADSVKGRFTISRDNAKNTVYLQMTSLKPEDTAVYYCAKASRRFLTLGYDYWGQGTQVTVSS,high polyreactivity
18,QVQLVESGGGLVQAGGSLRLSCAASGFTFPVYAMGWYRQAPGKEREFVAAITYIGGSTDADSVKGRFTISRDNAKNTVYLQMNSLKPEDTAVYYCAADIITEYRADYLVYLEYDYWGQGTQVTVSS,low polyreactivity
19,QVQLVESGGGLVQAGGSLRLSCAASGFTFPVYVMGWYRQAPGKERELVSAISGGGGTYYADSVKGRFTISRDNAKNTVYLQMNSLKPEDTAVYYCAADYRTYVYVYGFRHFDYWGQGTQVTVSS,low polyreactivity
20,QVQLVESGGGLVQAGGSLRLSCAASGFTFPYYAMGWSRQAPGKERELVAAISFSGGSPYYADSVKGRFTISRDNAKNTVYLQMNSLKPEDTAVYYCAATTKYNGRRSYFKFDYWGQGTQVTVST,high polyreactivity
21,QVQLVESGGGLVQAGGSLRLSCAASGFTFPYYAMGWYRQAPGKERELVAAISKSGGSTYYADSVKGRFTISRDYAKNTVYLQMNSLKPEDTAVYYCAADWYWWSYSDRHDYWGQGIQVTVSS,high polyreactivity
22,QVQLVESGGGLVQAGGSLRLSCAASGFTFPYYAMGWYRQAPGKERELVAAISYSGSTTYYADSVKGRFTISRDNAKNTVYLQMNSLKPEDTAVYYCAKAGYYYFQQWQVDYWGQGTQVTVSS,high polyreactivity

row,Sequence,polyreactivity (PSR sort gate)
1,QVQLVESGGGLVQAGGSLRLSCAASGFTFPYYAMGWYRQAPGKERELVAVISRSGGSTYYADSVKGRFTISRDNAKNTVYLQMNSLKPEDTAVYYCAKRYSLTGGKRTGYYWGQGTQVTVSS,high polyreactivity
2,QVQLVESGGGLVQAGGSLRLSCAASGFTFPYYSMGWYRQAPGKERELVAAINRSGGTKYADSVKGRFTISRDNAKNTVYVQMNSLKPEDTAVYDCAADSFYSRSRYDYWGQGSQVTVSS,high polyreactivity
3,QVQLVESGGGLVQAGGSLRLSCAASGFTFQDYAMGWYRQAPGKERELVASISNGGSTYYADSVKGRFTISRDNAKNTVYLQMNSLKPEDTAVYYCAKPYDPGPYHSSYRATDDYWGQGTQVTVSS,low polyreactivity
4,QVQLVESGGGLVQAGGSLRLSCAASGFTFQGYVMGWYRQAPGKERELVARITNDGSTTYADSVKGRFTISRDNAKNTVYLQMNSLKPEDTAVYYCDRPYRFWRYYGMYYWGQGTQVTVSS,high polyreactivity
5,QVQLVESGGGLVQAGGSLRLSCAASGFTFQRYAMGWYRQAPGKERELVAAISVRGTRTYYADSVKGRFTISRDNAMNTVYLQMNSLKPEDTAVYYCNADWERDVQDDYWGQGTQVTVSS,high polyreactivity
6,QVQLVESGGGLVQAGGSLRLSCAASGFTFQRYAMGWYRQAPGKERELVATINWSGRTYYADSVNGRFTISRDNAKNTVYLQMNSLKPEDTAVYYCAAERIQYGWWVLFDYWGQGTQVTVSS,high polyreactivity
7,QVQLVESGGGLVQAGGSLRLSCAASGFTFQTYAMGWYRQAPGKERELVATINSSGGGTYYADSVKGRFTNSRDNAKNTVYLQMNSLKPEDTAVYYCAADAVWFVGQAFDISDSTTYGYWGQGTQVTVSS,low polyreactivity
8,QVQLVESGGGLVQAGGSLRLSCAASGFTFQYNAMGWYRQAPGKERELVAGISRSGANTYYADSVKGRFTISRDTAKNTVYLQMNSLKPEDTAVYYCNNLTSRVGPDEYDYWGQGTQVTVSS,high polyreactivity
9,QVQLVESGGGLVQAGGSLRLSCAASGFTFQYYAMGWYRQAPGKERELVAAISWSGDSTYYADSVKGRITISRENAKNSVYLQMNSLKPEDTAVYYCAVYYTRGYDYWGQGTQVTVSS,high polyreactivity
10,QVQLVESGGGLVQAGGSLRLSCAASGFTFQYYSMGWYRQAPGKERELVAAISSSGGSTYYADSVKGRFTISRDNAENTVYLQMNSLKPEDTAVYYCAIRVSTYGFSGYDYWGQGTQVTVSS,high polyreactivity
11,QVQLVESGGGLVQAGGSLRLSCAASGFTFRANGMGWYRQAPGKERELVATITSGGTTNYADSVKGRFTISRDNAKITVYLQMNSLKPEDTAVYYCAKAFRHSTFFAPYDYWRQGTQVTVSS,low polyreactivity
12,QVQLVESGGGLVQAGGSLRLSCAASGFTFRAYAMGWYRQAPGKERELVAAITRSGVSTYYADSVKGRFTISRDNAKNTVYLQMNSLKPEDTAVYYCAAVAQRVGRSGTIEGDSWGQGTQVTVSS,high polyreactivity
13,QVQLVESGGGLVQAGGSLRLSCAASGFTFRFYAMGWYRQAPGKERELVATISSRGGRTYYADSVKGRFTISRDNAKNTVYLQMNSLKPEDTAVYYCNKDLYRYPGYDYWGQGTQVTVSS,high polyreactivity
14,QVQLVESGGGLVQAGGSLRLSCAASGFTFRGYAMGWYRQAPGKERELVAAITSRGGTTYYADSVKGRFTISRDNAKNTVYLQMNSLKPEDTAVYYCATTGGYTRGIGWYNYWGQGTQVTVSS,high polyreactivity
15,QVQLVESGGGLVQAGGSLRLSCAASGFTFRINAMGWYRQAPGKERELVAVITGSGTSTYYADSVKGRFTISRDNAKNTVYLQMNSLKPEDTAVYYCAKRGFISQKYYYWGQGTQGTVSS,high polyreactivity
16,QVQLVESGGGLVQAGGSLRLSCAASGFTFRIYAMGWYRQAPGKERELVAAITSGGRTYYADSVKGRFTISRDNAKNTVYLQMNSLKPEDTAVYYCAALYFTRDRYDYWGQGTQVTVSS,high polyreactivity
17,QVQLVESGGGLVQAGGSLRLSCAASGFTFRKNDMGWYRQAPGKERELLAAISSGGGRTYYADSVKWRFTISRDNAKNTVYLQMNSLKQEDTAVYYCNADDGYYVGLSSAIYDYCGQGTQVTVSS,high polyreactivity
18,QVQLVESGGGLVQAGGSLRLSCAASGFTFRLYDMGCYIQAPGKERELVAAISIRGGRTYYADSVKGRFTISRDNAKNTVYLQMNSLKPEDTAVYYCAAYSQYLKRDYWGQGTQVTVSS,high polyreactivity
19,QVQLVESGGGLVQAGGSLRLSCAASGFTFRNNAMGWYRQAPGKERELVAAISYSGGSTYYADSVKGRFTISRDNAKNTVYLQMNSLKPEDTAVYYCNPRRWSYLEYDYWGQGTQVTVSS,low polyreactivity
20,QVQLVESGGGLVQAGGSLRLSCAASGFTFRRNVIGWYRQAPGKERELVAAIRGSDGSTYYADSVKGRFTNSRDNAKNTVYLQMNSLKPEDTAVYYCNVVGIGLYRKMGYWGQGTQVTVSS,high polyreactivity
21,QVQLVESGGGLVQAGGSLRLSCAASGFTFRRYAMGWYRQAPGKERELVAAISLRSGRTNYADSVKGRFTISRDNAKNTVYLQMNSLKPEDTAVYYCAAGLYGKRAGTSYGYDYWGQGTQVTVSS,high polyreactivity
